Measured values from US20240084031A1 (Seagen, published 2024).

T1: human CD70 on CD70 positive cell lines (human, UniProt P32970 1-193)
T1 sequence (looked up): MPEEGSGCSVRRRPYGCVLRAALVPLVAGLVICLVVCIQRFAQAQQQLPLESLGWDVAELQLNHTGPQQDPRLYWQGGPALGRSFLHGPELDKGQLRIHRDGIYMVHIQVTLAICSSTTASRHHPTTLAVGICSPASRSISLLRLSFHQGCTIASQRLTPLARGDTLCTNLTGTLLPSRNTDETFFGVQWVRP


Assays:
[1] = target: T1, human CD70 on CD70 positive cell lines; assay: cell-based or functional assay
[2] = target: T1, human CD70 on CD70 positive cell lines; assay: saturation binding of europium-labelled antibody to CD70+ ACHN cells (apparent KD)
Description: (§1) Humanized 1F6 antibody derivatives HDLA (hVHD and hVLA), HHLA (hVHH and hVLA), and HJLA (hVHJ and hVLA), and c1F6 were transiently expressed in 293 cells, labeled with europium using the Eu-N1 iodoacetamido chelate (Perkin Elmer), and analyzed for saturation binding to a panel of CD70 positive cell lines as described in detail in U.S. Patent Application No. 60/673,070, filed Apr. 19, 2005; and PCT International Publication No. WO 2006/113909.

[3] = target: T1, human CD70 on CD70 positive cell lines; assay: saturation binding of europium-labelled antibody to CD70+ 786-O cells (apparent KD)
Description: as §1

[4] = target: T1, human CD70 on CD70 positive cell lines; assay: saturation binding of europium-labelled antibody to CD70+ Caki-1 cells (apparent KD)
Description: as §1

[5] = target: T1, human CD70 on CD70 positive cell lines; assay: saturation binding of europium-labelled antibody to CD70+ Caki-2 cells (apparent KD)
Description: as §1

[6] = target: T1, human CD70 on CD70 positive cell lines; assay: 786-O cell binding; IC50 of the vcF2 conjugate over IC50 of the unconjugated IgG
[7] = target: T2, human FcγRI, full length on stably transfected CHO cells (human, UniProt P12314 16-374); assay: cell-based competition binding, flow cytometry (LSRII): serial dilutions of unlabelled competitor against 50 nM Alexa Fluor 488-labelled h1F6 IgG1 on CHO cells expressing human FcγRI
T2 construct: whole, on cells; also called CD64; Fcγ receptor I
T2 sequence (P12314 16-374): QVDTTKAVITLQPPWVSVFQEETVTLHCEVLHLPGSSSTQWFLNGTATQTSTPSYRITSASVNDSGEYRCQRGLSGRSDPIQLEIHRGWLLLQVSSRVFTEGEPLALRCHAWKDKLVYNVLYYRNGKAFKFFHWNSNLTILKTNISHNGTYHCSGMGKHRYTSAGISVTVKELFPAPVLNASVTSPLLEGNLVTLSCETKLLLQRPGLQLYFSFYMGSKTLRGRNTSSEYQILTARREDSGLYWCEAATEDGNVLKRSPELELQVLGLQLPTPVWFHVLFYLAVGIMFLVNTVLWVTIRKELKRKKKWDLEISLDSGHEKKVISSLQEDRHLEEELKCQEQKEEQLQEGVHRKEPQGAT
Experimental: Labeled cells were detected using an LSRII FACS analyzer.
Binding of humanized anti-CD70 (h1F6) antibody to CHO cells expressing full-length FcγRI was determined by competition binding. […] Labeled cells were detected using an LSRII FACS analyzer.

[8] = target: T1, human CD70 on CD70 positive cell lines; assay: 786-O cell binding, apparent KD of the IgG

Row | Binder | cytotoxicity IC50 (mean, n = 3), 786-O cells [1] | cytotoxicity IC50 (mean, n = 3), Caki-1 cells [1] | cytotoxicity IC50, 786-O cells [1] | cytotoxicity IC50, Caki-1 cells [1] | further results
1 | c1F6(293)-F8 (c1F6 conjugated to vcMMAF, eight drug units per antibody) (antibody, V domains shown, vcMMAF conjugated, loading level of eight drug units per antibody; attachment residues not stated) VH: QIQLVQSGPEVKKPGETVKISCKASGYTFTNYGMNWVKQAPGKGLKWMGWINTYTGEPTYADAFKGRFAFSLETSASTAYLQINNLKNEDTATYFCARDYGDYGMDYWGQGTSVTVSS VL: DIVLTQSPASLAVSLGQRATISCRASKSVSTSGYSFMHWYQQKPGQPPKLLIYLASNLESGVPARFSGSGSGTDFTLNIHPVEEEDAATYYCQHSREVPWTFGGGTKLEIKR | 1.45 ng/mL | 2.17 ng/mL | 2.4 ng/mL | 1.8 ng/mL | –
2 | c1F6 (chimeric derivative of the anti-CD70 murine monoclonal antibody 1F6) (antibody, V domains shown, also called chimeric 1F6) VH: QIQLVQSGPEVKKPGETVKISCKASGYTFTNYGMNWVKQAPGKGLKWMGWINTYTGEPTYADAFKGRFAFSLETSASTAYLQINNLKNEDTATYFCARDYGDYGMDYWGQGTSVTVSS VL: DIVLTQSPASLAVSLGQRATISCRASKSVSTSGYSFMHWYQQKPGQPPKLLIYLASNLESGVPARFSGSGSGTDFTLNIHPVEEEDAATYYCQHSREVPWTFGGGTKLEIKR | – | – | – | – | Kd [2]: 0.3 nM; Kd [3]: 0.56 nM; Kd [4]: 1.28 nM; Kd [5]: 0.26 nM
3 | h1F6 HJLA-F8 (HJLA conjugated to vcMMAF, eight drug units per antibody) (antibody, human IgG1, kappa, vcMMAF conjugated, loading level of eight drug units per antibody; attachment residues not stated) heavy: not shown light: DIVMTQSPDSLAVSLGERATINCRASKSVSTSGYSFMHWYQQKPGQPPKLLIYLASNLESGVPDRFSGSGSGTDFTLTISSLQAEDVAVYYCQHSREVPWTFGQGTKVEIKRTVAAPSVFIFPPSDEQLKSGTASVVCLLNNFYPREAKVQWKVDNALQSGNSQESVTEQDSKDSTYSLSSTLTLSKADYEKHKVYACEVTHQGLSSPVTKSFNRGEC | 3.03 ng/mL | 2.3 ng/mL | 3.4 ng/mL | 2.2 ng/mL | –
4 | h1F6 IgG1-vcF2 (conjugate of h1F6 IgG1 in Table 8) (antibody, vcF2 as printed (taken as vcMMAF, 2 drugs/antibody); attachment residues not stated, Its preparation is not described; also called IgG1 IgG-vcF2) heavy: not shown light: DIVMTQSPDSLAVSLGERATINCRASKSVSTSGYSFMHWYQQKPGQPPKLLIYLASNLESGVPDRFSGSGSGTDFTLTISSLQAEDVAVYYCQHSREVPWTFGQGTKVEIKRTVAAPSVFIFPPSDEQLKSGTASVVCLLNNFYPREAKVQWKVDNALQSGNSQESVTEQDSKDSTYSLSSTLTLSKADYEKHKVYACEVTHQGLSSPVTKSFNRGEC | – | – | – | – | IC50 IgG-vcF2 / IC50 IgG [6]: 1.3 ratio
5 | h1F6 IgG4 (IgG4 isotype variant of h1F6 HJLA) (antibody, also called h1F6 G4) heavy: not shown light: DIVMTQSPDSLAVSLGERATINCRASKSVSTSGYSFMHWYQQKPGQPPKLLIYLASNLESGVPDRFSGSGSGTDFTLTISSLQAEDVAVYYCQHSREVPWTFGQGTKVEIKRTVAAPSVFIFPPSDEQLKSGTASVVCLLNNFYPREAKVQWKVDNALQSGNSQESVTEQDSKDSTYSLSSTLTLSKADYEKHKVYACEVTHQGLSSPVTKSFNRGEC | – | – | – | – | IC50 (read off the curve) [7]: ~30 nM
6 | h1F6 IgG1 D265C-vcF2 (conjugate in Table 8) (antibody, vcF2 as printed (taken as vcMMAF, 2 drugs/antibody); attachment residues not stated, Position 265 is Fc (EU) numbering; also called IgG1 D265C IgG-vcF2) heavy: not shown light: DIVMTQSPDSLAVSLGERATINCRASKSVSTSGYSFMHWYQQKPGQPPKLLIYLASNLESGVPDRFSGSGSGTDFTLTISSLQAEDVAVYYCQHSREVPWTFGQGTKVEIKRTVAAPSVFIFPPSDEQLKSGTASVVCLLNNFYPREAKVQWKVDNALQSGNSQESVTEQDSKDSTYSLSSTLTLSKADYEKHKVYACEVTHQGLSSPVTKSFNRGEC | – | – | – | – | IC50 IgG-vcF2 / IC50 IgG [6]: 0.9 ratio
7 | h1F6 IgG1 E269C-vcF2 (conjugate in Table 8) (antibody, vcF2 as printed (taken as vcMMAF, 2 drugs/antibody); attachment residues not stated, Position 269 is Fc (EU) numbering; also called IgG1 E269C IgG-vcF2) heavy: not shown light: DIVMTQSPDSLAVSLGERATINCRASKSVSTSGYSFMHWYQQKPGQPPKLLIYLASNLESGVPDRFSGSGSGTDFTLTISSLQAEDVAVYYCQHSREVPWTFGQGTKVEIKRTVAAPSVFIFPPSDEQLKSGTASVVCLLNNFYPREAKVQWKVDNALQSGNSQESVTEQDSKDSTYSLSSTLTLSKADYEKHKVYACEVTHQGLSSPVTKSFNRGEC | – | – | – | – | IC50 IgG-vcF2 / IC50 IgG [6]: 0.9 ratio
8 | h1F6 IgG1 D265C (antibody) heavy: not shown light: DIVMTQSPDSLAVSLGERATINCRASKSVSTSGYSFMHWYQQKPGQPPKLLIYLASNLESGVPDRFSGSGSGTDFTLTISSLQAEDVAVYYCQHSREVPWTFGQGTKVEIKRTVAAPSVFIFPPSDEQLKSGTASVVCLLNNFYPREAKVQWKVDNALQSGNSQESVTEQDSKDSTYSLSSTLTLSKADYEKHKVYACEVTHQGLSSPVTKSFNRGEC | – | – | – | – | Kd [8]: 1.1 nM
9 | h1F6 IgG1 A327C (antibody) heavy: not shown light: DIVMTQSPDSLAVSLGERATINCRASKSVSTSGYSFMHWYQQKPGQPPKLLIYLASNLESGVPDRFSGSGSGTDFTLTISSLQAEDVAVYYCQHSREVPWTFGQGTKVEIKRTVAAPSVFIFPPSDEQLKSGTASVVCLLNNFYPREAKVQWKVDNALQSGNSQESVTEQDSKDSTYSLSSTLTLSKADYEKHKVYACEVTHQGLSSPVTKSFNRGEC | – | – | – | – | Kd [8]: 0.5 nM
10 | h1F6 IgG1 A327C-vcF2 (conjugate in Table 8) (antibody, vcF2 as printed (taken as vcMMAF, 2 drugs/antibody); attachment residues not stated, Position 327 is Fc (EU) numbering; also called IgG1 A327C IgG-vcF2) heavy: not shown light: DIVMTQSPDSLAVSLGERATINCRASKSVSTSGYSFMHWYQQKPGQPPKLLIYLASNLESGVPDRFSGSGSGTDFTLTISSLQAEDVAVYYCQHSREVPWTFGQGTKVEIKRTVAAPSVFIFPPSDEQLKSGTASVVCLLNNFYPREAKVQWKVDNALQSGNSQESVTEQDSKDSTYSLSSTLTLSKADYEKHKVYACEVTHQGLSSPVTKSFNRGEC | – | – | – | – | IC50 IgG-vcF2 / IC50 IgG [6]: 1.1 ratio
11 | h1F6 IgG1 E269C (antibody) heavy: not shown light: DIVMTQSPDSLAVSLGERATINCRASKSVSTSGYSFMHWYQQKPGQPPKLLIYLASNLESGVPDRFSGSGSGTDFTLTISSLQAEDVAVYYCQHSREVPWTFGQGTKVEIKRTVAAPSVFIFPPSDEQLKSGTASVVCLLNNFYPREAKVQWKVDNALQSGNSQESVTEQDSKDSTYSLSSTLTLSKADYEKHKVYACEVTHQGLSSPVTKSFNRGEC | – | – | – | – | Kd [8]: 0.8 nM
12 | h1F6 HMLA-F8 (humanized 1F6 derivative HMLA, hVHM and hVLA, conjugated to vcMMAF, eight drug units per antibody) (antibody, human IgG1, kappa, V domains shown, vcMMAF conjugated, loading level of eight drug units per antibody; attachment residues not stated) VH: QVQLVQSGAEVKKPGASVKVSCKASGYTFTNYGMNWVRQAPGQGLKWMGWINTYTGEPTYADAFKGRFAFSLDTSTSTAYMELRSLRSDDTAVYYCARDYGDYGMDYWGQGTTVTVSS VL: DIVMTQSPDSLAVSLGERATINCRASKSVSTSGYSFMHWYQQKPGQPPKLLIYLASNLESGVPDRFSGSGSGTDFTLTISSLQAEDVAVYYCQHSREVPWTFGQGTKVEIKR | 2.03 ng/mL | 2.07 ng/mL | 2.8 ng/mL | 1.8 ng/mL | –
13 | h1F6 HELA-F8 (humanized 1F6 derivative HELA, hVHE and hVLA, conjugated to vcMMAF, eight drug units per antibody) (antibody, human IgG1, kappa, V domains shown, vcMMAF conjugated, loading level of eight drug units per antibody; attachment residues not stated) VH: QVQLVQSGAEVKKPGASVKVSCKASGYTFTNYGMNWVRQAPGQGLEWMGWINTYTGEPTYADAFKGRVTMTRDTSISTAYMELSRLRSDDTAVYYCARDYGDYGMDYWGQGTTVTVSS VL: DIVMTQSPDSLAVSLGERATINCRASKSVSTSGYSFMHWYQQKPGQPPKLLIYLASNLESGVPDRFSGSGSGTDFTLTISSLQAEDVAVYYCQHSREVPWTFGQGTKVEIKR | 3.9 ng/mL | 2.87 ng/mL | 5.2 ng/mL | 3.4 ng/mL | –
14 | humanized 1F6 antibody derivative HDLA (hVHD and hVLA) (antibody, human IgG1, kappa, V domains shown, Heavy chain is hVH-D + hIgG1 constant domain; also called h1F6 HDLA) VH: QVQLVQSGAEVKKPGASVKVSCKASGYTFTNYGMNWVRQAPGQGLEWMGWINTYTGEPTYADAFKGRVTMTTDTSTSTAYMELRSLRSDDTAVYYCARDYGDYGMDYWGQGTTVTVSS VL: DIVMTQSPDSLAVSLGERATINCRASKSVSTSGYSFMHWYQQKPGQPPKLLIYLASNLESGVPDRFSGSGSGTDFTLTISSLQAEDVAVYYCQHSREVPWTFGQGTKVEIKR | – | – | – | – | Kd [2]: 1.44 nM; Kd [3]: 0.55 nM; Kd [4]: 1.29 nM; Kd [5]: 0.86 nM
15 | h1F6 HHLA-F8 (HHLA conjugated to vcMMAF, eight drug units per antibody) (antibody, human IgG1, kappa, V domains shown, vcMMAF conjugated, loading level of eight drug units per antibody; attachment residues not stated) VH: QVQLVQSGAEVKKPGASVKVSCKASGYTFTNYGMNWVRQAPGQGLEWMGWINTYTGEPTYADAFKGRFAFSLDTSTSTAYLQINSLRSDDTAVYYCARDYGDYGMDYWGQGTTVTVSS VL: DIVMTQSPDSLAVSLGERATINCRASKSVSTSGYSFMHWYQQKPGQPPKLLIYLASNLESGVPDRFSGSGSGTDFTLTISSLQAEDVAVYYCQHSREVPWTFGQGTKVEIKR | 1.93 ng/mL | 1.87 ng/mL | 2.3 ng/mL | 1.4 ng/mL | –
16 | humanized 1F6 antibody derivative HHLA (hVHH and hVLA) (antibody, V domains shown, Heavy chain is hVH-H + hIgG1 constant domain; also called h1F6 HHLA) VH: QVQLVQSGAEVKKPGASVKVSCKASGYTFTNYGMNWVRQAPGQGLEWMGWINTYTGEPTYADAFKGRFAFSLDTSTSTAYLQINSLRSDDTAVYYCARDYGDYGMDYWGQGTTVTVSS VL: DIVMTQSPDSLAVSLGERATINCRASKSVSTSGYSFMHWYQQKPGQPPKLLIYLASNLESGVPDRFSGSGSGTDFTLTISSLQAEDVAVYYCQHSREVPWTFGQGTKVEIKR | – | – | – | – | Kd [2]: 0.29 nM; Kd [3]: 0.28 nM; Kd [4]: 1.22 nM; Kd [5]: 0.15 nM
